Test results published in article PMC6642096 (Nature Communications, 2019).

Target: T1, LgB-NIX (UniProt O60238 1-219)
T1 construct: also called NIX (NanoBiT Large BiT fusion); not shown: Large BiT (LgB), N-terminal, kept
Experiment: split reporter (BiFC, NanoBiT)
Conditions: partners not purified

T1 sequence (O60238 whole entry, the tested form may be a part): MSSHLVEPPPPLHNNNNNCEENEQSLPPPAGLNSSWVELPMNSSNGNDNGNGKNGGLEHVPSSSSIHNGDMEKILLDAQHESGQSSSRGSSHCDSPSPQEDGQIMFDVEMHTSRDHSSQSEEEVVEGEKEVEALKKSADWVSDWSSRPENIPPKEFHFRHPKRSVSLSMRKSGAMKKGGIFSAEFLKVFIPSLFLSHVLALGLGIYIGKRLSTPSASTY

B1: vIRF-1-SmB (natural protein)
chain: MDPGQRPNPFGAPGAIPKKPCLSQGSPGTSGSGAPCDEPSRSESPGEGPSGTGGSAAAGDITRQAVVAAITEWSRTRQLRISTGASEGKASIKDWIVCQVNSGKFPGVEWEDEERTRFRIPVTPLADPCFEWRRDGELGVVYIRERGNMPVDASFKGTRGRRRMLAALRRTRGLQEIGKGISQDGHHFLVFRVRKPEEEQCVECGVVAGAVHDFNNMARLLQEGFFSPGQCLPGEIVTPVPSCTTAEGQEAVIDWGRLFIRMYYNGEQVHELLTTSQSGCRISSALRRDPAVHYCAVGSPGQVWLPNVPNLACEIAKRELCDTLDACAKGILLTSSCNGIFCVCYHNGPVHFIGNTVPPDSGPLLLPQGKPTRIFNPNTFLVGLANSPLPAPSHVTCPLVKLWLGKPVAVGKLEPHAPSPRDFAARCSNFSDACVVLEIMPKPLWDAMQ
notes: also called vIRF-1-SmB (NanoBiT Small BiT fusion); source: 293T, transiently transfected, in cells; not shown: Small BiT (SmB), C-terminal, kept
fold luminescence against HT-SmB with LgB-NIX: 10 fold
